Experimental data published in patent US5863776A, “Method of preparing apoenzyme” (Research Development Foundation, priority 1996, dated 1999).

Columns and labels:
[1] = target: T1, MAO B (Homo sapiens, UniProt P27338); experiment: Quantitation of expressed MAO B protein by ELISA in transfected COS-7 cells; format: cell-based; design: MAO B Expressed: unit not given here
T1 construct: expressed in transfected cells; host or cells: COS-7 (African green monkey), riboflavin-containing (Rib+) or riboflavin-depleted (Rib-), transient electroporation
T1 sequence (P27338 1-520): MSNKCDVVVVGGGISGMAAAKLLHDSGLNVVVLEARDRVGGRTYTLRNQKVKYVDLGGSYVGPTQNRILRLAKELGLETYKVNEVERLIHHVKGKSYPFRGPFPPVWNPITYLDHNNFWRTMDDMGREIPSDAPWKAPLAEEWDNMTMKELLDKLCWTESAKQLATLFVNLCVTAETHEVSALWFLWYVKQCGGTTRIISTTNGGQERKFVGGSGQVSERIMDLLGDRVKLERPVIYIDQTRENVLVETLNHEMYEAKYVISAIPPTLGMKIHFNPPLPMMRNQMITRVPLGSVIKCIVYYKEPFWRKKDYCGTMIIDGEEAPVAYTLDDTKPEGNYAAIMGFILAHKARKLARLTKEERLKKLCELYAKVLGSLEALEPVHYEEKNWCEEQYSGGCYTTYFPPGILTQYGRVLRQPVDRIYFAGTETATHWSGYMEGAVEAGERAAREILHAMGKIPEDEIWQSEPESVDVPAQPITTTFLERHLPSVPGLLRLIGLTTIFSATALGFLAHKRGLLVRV
Protocol: (§1) Total protein concentrations of samples containing MAO B holoenzyme, apoenzyme, or variant MAO Bs were determined by a MicroBCA kit (Pierce). All samples were then adjusted to equal protein concentrations and assayed for MAO B protein by ELISA using a modification of the method of Yeomanson and Billett (25) as described previously (18).
MAO B cDNA was expressed sequentially at different time intervals in these cells during this riboflavin depletion process (FIG. 2). Each data point in FIG. 2 represents an individual expression assay. For each assay, a sample of COS-7 cells grown in riboflavin-free medium were transfected with MAO B cDNA via electroporation. Concurrently, Rib^+ COS-7 cells were transfected with MAO B cDNA to serve as a control. Following incubation for 48 hours, the cells were homogenized and assays were performed to determine protein concentration, MAO B concentration by ELISA using polyclonal antibodies, and MAO B activity using [^14 C] benzylamine.
An equal amount of MAO B cDNA (15 μg) was expressed in both types of […]

[2] = target: T1, MAO B; experiment: MAO B enzymatic activity in COS-7 cells during riboflavin depletion; format: cell-based
Protocol: Mammalian COS-7 cells were grown in Dulbecco's Modified Eagle Medium (DMEM, Gibco) supplemented with 10% fetal bovine serum (FBS, Gibco) at 37° C. with 5% CO2. Since this medium (DMEM+10% FBS) contains riboflavin, COS-7 cells grown in this medium were defined as riboflavin-containing COS-7 cells (Rib^+ COS-7 cells). MAO B holoenzyme was obtained by expressing MAO B cDNA in Rib^+ COS-7 cells. Mammalian COS-7 cells were also grown in riboflavin-free medium (riboflavin-free DMEM+10% dialyzed FBS, Gibco) at 37° C. with 5% CO2, with fresh riboflavin-free medium changed every 48-72 hours. COS-7 cells grown in riboflavin-free medium for longer than 100 days were defined as riboflavin-depleted (Rib^-) COS-7 cells. Apo-MAO B was obtained by expressing MAO B cDNA in Rib^- COS-7 cells. COS-7 cells were grown in riboflavin-free medium for greater than 5 months without any detectable change in morphology.
Wild-type or mutant MAO B cDNAs were transiently transfected into COS-7 cells by electroporation (23) as previously described (18). […]
MAO B activity was assayed radiometrically by a modification of the method of Wurtman and Axelrod (26) as described previously (18). […] The reaction product was extracted with 500 μl of toluene, and an aliquot (200 μl) of the organic phase from each sample was counted in liquid scintillation fluid (Bio-Safe) in a Beckman LB 3801 scintillation counter. […]

[3] = target: T1, MAO B; experiment: FAD coupling in intact cells: MAO B enzymatic activity after electroporation of MAO B cDNA with cofactor into Rib^- COS-7 cells ([^14 C] benzylamine substrate); format: cell-based; design: Percent of Holo-MAO B Activity: concentration or dose not given beside the values
Protocol: Wild-type or mutant MAO B cDNAs were transiently transfected into COS-7 cells by electroporation (23) as previously described (18). Briefly, Rib^+ - or Rib^- COS-7 cells were harvested during late log phase growth and resuspended to a concentration of 3.1×10^6 cells/ml in either riboflavin-containing or riboflavin-free medium, respectively. Wild-type or mutant MAO B cDNAs ([…]) were added to 0.8 ml of cell suspension. […] Electroporation was carried out in a Bio-Rad Gene Pulser with a setting of 250 V and 500 μF. Cells were resuspended in 15 ml of riboflavin-containing or riboflavin-free medium and incubated at 37° C. with 5% CO2. Transfected COS-7 cells were harvested at 48 hours and homogenized in a lysis solution containing 20 mM Tris-HCl, 1 mM EDTA, 0.5 mM PMSF, pH 8.0. The homogenate was diluted with an equal volume of the same buffer supplemented with 300 mM NaCl to obtain a 150 mM final NaCl concentration. Triton X-100 (Pierce) was added to the lysate to give a final concentration of 0.25%, and the samples were allowed to stir for 50 min. at 4° C. to extract MAO B from the outer mitochondrial membrane. After Triton extraction, the lysate was centrifuged at 1300×g for 5 min. at 4° C. to remove insoluble cell debris.
(§2) MAO B activity was assayed radiometrically by a modification of the method of Wurtman and Axelrod (26) as described previously (18). Briefly, the reaction mixture contained 200 μl of 50 mM sodium phosphate buffer (pH 7.4), 3.6 nmole of 55 mCi/mmol [^14 C] benzylamine hydrochloride (Amersham), 10 nmoles of unlabeled benzylamine and 10 μl of cell lysate. Samples were run in triplicate, and one out of each set was denatured with […] of 6N HCl prior to the addition of substrate to serve as an internal control. All reactions were incubated for 9 minutes at 37° C., and terminated by the addition of 25 μl of 6N HCl. The reaction product was extracted with 500 μl of toluene, and an aliquot (200 μl) of the organic phase from each sample was counted in liquid scintillation fluid (Bio-Safe) in a Beckman LB 3801 scintillation counter.
FMN or riboflavin were also capable of restoring approximately 75% of MAO B holoenzyme activity. However, only 40% of MAO B holoenzyme activity was obtained by the addition of 8α-hydroxyriboflavin.
Various cofactors were added with MAO B cDNA into Rib^- COS7 cells

[4] = target: T1, MAO B; experiment: Subcellular fractionation of transfected Rib^+ and Rib^- COS-7 cells: distribution of MAO B and activity; format: cell-based; settings: for Fraction activity: Rib^+ COS-7
Protocol: COS-7 subcellular fractionation was carried out with a modified method of Clark and Waterman (24). Transfected Rib^+ - or Rib^- COS-7 cells were harvested, washed twice with ice-cold PBS, and pelleted by microcentrifugation at 500×g for 5 minutes. The cells were then homogenized in a Dounce homogenizer. Greater than 95% of the cells were lysed, as determined by trypan blue staining. The homogenate was diluted with an equal volume of 10 mM Tris-HCl, 1 mM EDTA, pH 8.0, to obtain a 0.25M final sucrose concentration and layered over 0.5 volume of 0.5M sucrose pad (0.5M sucrose in 10 mM Tris-HCl, 1 mM EDTA, pH 8.0). The solution was centrifuged at 5,000 rpm for 3 minutes using a swinging bucket rotor (TLS.55, Beckman TL-100) to remove cell debris and nuclei (P1 fraction). The supernatant plus the interface of the 0.5M sucrose pad was again layered over another 0.5M sucrose pad, and centrifuged as above at 17,000 rpm for 20 minutes to isolate mitochondria (P2 fraction). The resulting supernatant was centrifuged at 70,000 rpm (TL100.3, Beckman TL-100) for 30 minutes to sediment microsomes (P3 fraction). The final supernatant was the cytosol (S). After subcellular fractionation, P1, P2 and P3 were resuspended in 20 mM Tris-HCl, 1 mM EDTA, 0.5 mM PMSF, 150 mM NaCl, pH 8.0. All samples were treated with Triton X-100 to extract MAO B, and then protein concentrations, MAO B concentrations and enzymatic activities were determined.
as §1, §2
Transfected Rib^+ or Rib^- COS7 cells (1.2 × 10^7

[5] = target: T1, MAO B; experiment: FAD coupling in vitro (flavinylation assay in cell lysate, 30° C.); format: biochemical; settings: up to 3 hours at 30° C.
Protocol: (- - - x - - - ). […] The enzymatic activity of each sample was determined at 1 hour time intervals using [^14 C] benzylamine as substrate.
Apo-MAO B was obtained by expressing MAO B cDNA in Rib^- COS-7 cells. The cells were then harvested and homogenized as described above. One half of the lysate was stirred in the presence of 0.25% Triton X-100 at 4° C. for 50 min. to extract apo-MAO B from the outer mitochondrial membrane. The second half of the lysate was not extracted with Triton X-100 to permit MAO B to remain in the membrane. […] Assays were also carried out in the presence of an energy mixture (10 mM ATP, 32 mM PEP and 2.4 μg pyruvate kinase) and 25% glycerol in the reaction vials. Each sample was run in triplicate. After 1, 2 or 3 hours incubation at 30° C., each sample was assayed for MAO B activity as described below.
as §2

[6] = COS-7 cells grown in riboflavin-free medium for 76 days
[7] = cofactor added with MAO B cDNA into Rib^- COS-7 cells, 48 hours, mean ± SE, three experiments
[8] = Mitochondria (P2), listed as holo-MAO B

monoamine oxidase B [MAO B]
Expression [1, 6]: 0.90 μg MAO B/mg prot. | [MAO B] [1, 6]: 3.70 µg/mL | Expression ([1]; Rib^+ COS-7): 0.86 μg MAO B/mg prot. | [MAO B] ([1]; Rib^+ COS-7): 3.50 µg/mL | MAO B expression level ([1]; during riboflavin depletion, regardless of time in riboflavin-free medium): 0.95±0.04 μg/mg protein | MAO B activity, % of MAO B holoenzyme activity in Rib^+ COS-7 cells ([2]; 100 days in riboflavin-free medium): less than 5% | MAO B activity ([2]; after 116 days in riboflavin-free medium): nearly undetectable

B1: Holo-MAO B: obtained by expressing MAO B cDNA in Rib^+ COS-7 cells, which served as a positive control (protein, UniProt P27338 2-520, looked up)
Amine oxidase …: SNKCDVVVVGGGISGMAAAKLLHDSGLNVVVLEARDRVGGRTYTLRNQKVKYVDLGGSYVGPTQNRILRLAKELGLETYKVNEVERLIHHVKGKSYPFRGPFPPVWNPITYLDHNNFWRTMDDMGREIPSDAPWKAPLAEEWDNMTMKELLDKLCWTESAKQLATLFVNLCVTAETHEVSALWFLWYVKQCGGTTRIISTTNGGQERKFVGGSGQVSERIMDLLGDRVKLERPVIYIDQTRENVLVETLNHEMYEAKYVISAIPPTLGMKIHFNPPLPMMRNQMITRVPLGSVIKCIVYYKEPFWRKKDYCGTMIIDGEEAPVAYTLDDTKPEGNYAAIMGFILAHKARKLARLTKEERLKKLCELYAKVLGSLEALEPVHYEEKNWCEEQYSGGCYTTYFPPGILTQYGRVLRQPVDRIYFAGTETATHWSGYMEGAVEAGERAAREILHAMGKIPEDEIWQSEPESVDVPAQPITTTFLERHLPSVPGLLRLIGLTTIFSATALGFLAHKRGLLVRV
modifications: FAD holoenzyme
notes: obtained by expressing MAO B cDNA in Rib^+ COS-7 cells, which served as a positive control
Enzymatic Activity [3, 7]: 1.13 ± 0.14 μmol benzylamine/minute/mg MAO | Percent of Holo-MAO B Activity ([3]; relative to holo-MAO B expressed in Rib^+ COS-7 cells): 100% | MAO B Expressed [1, 7]: 1.05 ± 0.25 | Fraction activity, percentage of total ([4]; Cell debris (P1)): 4.5% | MAO B amount ([4]; Cell debris (P1)): 58 ng | MAO B, percentage of total amount ([4]; Cell debris (P1)): 6.1% | Fraction activity, percentage of total ([4]; Cytosol (S)): 3.7% | MAO B amount ([4]; Cytosol (S)): 45 ng | MAO B, percentage of total amount ([4]; Cytosol (S)): 4.7% | Fraction activity, percentage of total ([4]; Microsome (P3)): 8.6% | MAO B amount ([4]; Microsome (P3)): 96 ng | MAO B, percentage of total amount ([4]; Microsome (P3)): 10% | Fraction activity, percentage of total ([4]; Mitochondria (P2)): 83.3% | MAO B amount ([4]; Mitochondria (P2)): 760 ng | MAO B, percentage of total amount ([4]; Mitochondria (P2)): 79.3% | Fraction activity, percentage of total [4, 8]: Approximately 80% | MAO B, percentage of total amount [4, 8]: Approximately 80% | Fraction activity ([4]; Cell debris (P1)): 0.6 10^-4 mmol/minute | Fraction activity ([4]; Cytosol (S)): 0.48 10^-4 mmol/minute | Fraction activity ([4]; Microsome (P3)): 1.11 10^-4 mmol/minute | Fraction activity ([4]; Mitochondria (P2)): 10.8 10^-4 mmol/minute | stability of enzymatic activity in cell lysate [5]: remained fully active
